Experimental data: patent US20220002407A1

Biological target: CD19 on CD19-positive human tumor cells (Raji, Raji-Luc, NALM6, Reh) (human) (UniProt P15391)
Assay: cell-based or functional assay

Sequence of CD19 on CD19-positive human tumor cells (Raji, Raji-Luc, NALM6, Reh) (human) (P15391 20-556): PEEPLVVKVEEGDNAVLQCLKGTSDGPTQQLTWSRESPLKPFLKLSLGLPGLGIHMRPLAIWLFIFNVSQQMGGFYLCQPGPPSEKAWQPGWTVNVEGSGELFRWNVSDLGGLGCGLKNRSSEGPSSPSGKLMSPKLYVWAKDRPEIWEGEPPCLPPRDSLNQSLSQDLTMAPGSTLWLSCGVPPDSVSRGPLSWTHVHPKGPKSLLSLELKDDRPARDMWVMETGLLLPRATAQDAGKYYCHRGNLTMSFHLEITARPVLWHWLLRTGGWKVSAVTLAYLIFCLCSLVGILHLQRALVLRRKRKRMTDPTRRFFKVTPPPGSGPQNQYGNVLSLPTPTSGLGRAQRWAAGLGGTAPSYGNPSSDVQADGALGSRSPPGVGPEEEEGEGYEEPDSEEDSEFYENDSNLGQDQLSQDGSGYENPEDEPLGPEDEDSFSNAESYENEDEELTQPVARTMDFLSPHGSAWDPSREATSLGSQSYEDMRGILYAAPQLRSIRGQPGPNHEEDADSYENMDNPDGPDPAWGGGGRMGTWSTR

## bispecific antibody blinatumomab (Blincyto, Amgen)
  EC50 of activation of NFAT-RE luciferase reporter Jurkat T cells in the presence of Raji target cells: 2.71 nM
  EC50 to mediate CIK to kill different tumor cells (NALM6): 0.0773 nM
  EC50 to mediate CIK to kill different tumor cells (Reh): 0.0119 nM
  EC50 to mediate CIK to kill tumor cells (Raji-LUC): 0.000595 nM
  EC50 to mediate CIK to kill tumor cells (Raji-LUC, second row without label): 0.00565 nM
  EC50 to mediate PBMCs to kill tumor cells (Raji-LUC): 0.00545 nM
  EC50 to mediate PBMCs to kill tumor cells (Raji-LUC, second row without label): 0.0212 nM
  EC50 to mediate PBMCs to kill tumor cells (Raji-LUC, third row without label): 0.0226 nM
